How the values were obtained:
S100A9 peptide C7a = target: T1, S100A9 peptide C7a (human); experiment: direct ELISA on coated peptides
T1 peptide: PGLGEGTP

S100A9 peptide C7 = target: T2, S100A9 peptide C7 (human); experiment: direct ELISA on coated peptides
T2 construct: also called 10 last amino acid of the C-terminal region of S100A9
T2 peptide: HKPGLGEGTP

[1] = target: T3, S100A9 C-term (C) peptide (human); experiment: dot blot on PVDF
T3 construct: also called C-terminal peptide
T3 peptide: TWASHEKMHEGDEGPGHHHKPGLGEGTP
Description: FIG. 7 illustrates that 6B4 recognizes the C-terminal peptide of S100A9. Recombinant S100A8 and S100A9 (1 μg), PBS1×, N-terminal (N), Hinge (H) and C-terminal (C) peptides (10 and 50 μg) were put onto PVDF membrane to perform dot blot analysis using the mAb 6B4.
A dot blot was first performed to verify the ability of the mAb 6B4 to recognize these regions of S100A9. Briefly, 1 μg of recombinant S100A9 or S100A8 (negative control), and 10 and 50 μg of S100A9 peptides were deposited on PVDF membrane. The dried membrane was then blocked with TBS/0.1% Tween/milk 5% 30 min at room temperature under gentle agitation and labelled with 1 μg/ml of 6B4 mAb for 1 hr at RT. The membrane was extensively washed with TBS/0.1% Tween, then labelled with goat anti-mouse ( 1/20 000) in blocking buffer for 1 hr at RT under gentle agitation. The membrane was then extensively washed and visualized by enhanced chemiluminescence (ECL) as described by the manufacturer (PerkinElmer).

Measured: binding result

B1: mouse monoclonal antibody 6B4 (antibody, IgG1, V domains shown)
VH: QVQLQQPGSELVRPGASVKLSCKASGYTFTTYWIHWVRQRPGQGLEWIGNIYPGGDSSNYDEKVKSRATLTVDTSSSTAYMQLSSLTSEDSAVYYCSRWGIWGQGTLVTVSA
VL: ENVLTQSPAIMSASPGEKVTMTCSARSSVSYVHWYQQKSNTSPKLWIYDTSKLASGVPGRFSGSGSGNSYSLTISSMEAEDVATYYCFQGSGYPLTFGAGTKLELK
notes: also called mAb 6B4; 6B4 mAb
binds: all assays above
